Laboratory results from publication PMC5034320, “Modulation of yeast telomerase activity by Cdc13 and Est1 in vitro”.

T1: Cdc13 (Saccharomyces cerevisiae, UniProt P32797 1-924)
T1 sequence: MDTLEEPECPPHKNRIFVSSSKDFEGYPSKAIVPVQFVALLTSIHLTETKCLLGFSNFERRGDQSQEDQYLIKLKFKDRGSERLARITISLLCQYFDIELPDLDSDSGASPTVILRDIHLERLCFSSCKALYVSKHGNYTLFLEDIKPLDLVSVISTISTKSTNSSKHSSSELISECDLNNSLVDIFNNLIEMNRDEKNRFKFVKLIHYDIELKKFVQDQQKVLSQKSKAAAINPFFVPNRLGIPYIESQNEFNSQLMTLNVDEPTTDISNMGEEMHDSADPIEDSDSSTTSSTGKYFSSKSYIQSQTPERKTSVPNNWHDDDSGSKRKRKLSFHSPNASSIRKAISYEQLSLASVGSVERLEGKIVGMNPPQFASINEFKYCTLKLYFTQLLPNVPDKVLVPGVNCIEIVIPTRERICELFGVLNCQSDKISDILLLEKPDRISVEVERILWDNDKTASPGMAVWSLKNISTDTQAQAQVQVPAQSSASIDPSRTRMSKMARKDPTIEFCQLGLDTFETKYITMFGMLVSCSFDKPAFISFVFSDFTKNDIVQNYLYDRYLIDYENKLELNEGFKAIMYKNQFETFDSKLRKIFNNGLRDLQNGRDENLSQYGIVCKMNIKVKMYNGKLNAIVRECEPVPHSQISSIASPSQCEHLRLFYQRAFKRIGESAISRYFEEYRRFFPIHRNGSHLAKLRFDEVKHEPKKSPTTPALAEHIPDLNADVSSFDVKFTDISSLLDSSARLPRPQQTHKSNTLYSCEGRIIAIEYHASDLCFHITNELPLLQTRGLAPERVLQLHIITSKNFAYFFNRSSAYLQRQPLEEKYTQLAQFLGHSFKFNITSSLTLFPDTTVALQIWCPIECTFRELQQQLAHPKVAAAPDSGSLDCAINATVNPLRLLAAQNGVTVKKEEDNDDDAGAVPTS

T2: Cdc13-BD (Saccharomyces cerevisiae, UniProt P32797 451-693)
T2 sequence: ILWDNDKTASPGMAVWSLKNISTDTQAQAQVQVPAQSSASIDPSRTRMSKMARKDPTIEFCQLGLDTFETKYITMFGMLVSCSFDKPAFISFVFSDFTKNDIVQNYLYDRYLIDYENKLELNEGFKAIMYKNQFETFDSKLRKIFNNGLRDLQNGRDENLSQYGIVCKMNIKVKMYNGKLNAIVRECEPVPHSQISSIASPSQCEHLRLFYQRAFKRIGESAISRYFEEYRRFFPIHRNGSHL

T3: Est1-TAP (Saccharomyces cerevisiae, UniProt P17214 1-699)
T3 sequence: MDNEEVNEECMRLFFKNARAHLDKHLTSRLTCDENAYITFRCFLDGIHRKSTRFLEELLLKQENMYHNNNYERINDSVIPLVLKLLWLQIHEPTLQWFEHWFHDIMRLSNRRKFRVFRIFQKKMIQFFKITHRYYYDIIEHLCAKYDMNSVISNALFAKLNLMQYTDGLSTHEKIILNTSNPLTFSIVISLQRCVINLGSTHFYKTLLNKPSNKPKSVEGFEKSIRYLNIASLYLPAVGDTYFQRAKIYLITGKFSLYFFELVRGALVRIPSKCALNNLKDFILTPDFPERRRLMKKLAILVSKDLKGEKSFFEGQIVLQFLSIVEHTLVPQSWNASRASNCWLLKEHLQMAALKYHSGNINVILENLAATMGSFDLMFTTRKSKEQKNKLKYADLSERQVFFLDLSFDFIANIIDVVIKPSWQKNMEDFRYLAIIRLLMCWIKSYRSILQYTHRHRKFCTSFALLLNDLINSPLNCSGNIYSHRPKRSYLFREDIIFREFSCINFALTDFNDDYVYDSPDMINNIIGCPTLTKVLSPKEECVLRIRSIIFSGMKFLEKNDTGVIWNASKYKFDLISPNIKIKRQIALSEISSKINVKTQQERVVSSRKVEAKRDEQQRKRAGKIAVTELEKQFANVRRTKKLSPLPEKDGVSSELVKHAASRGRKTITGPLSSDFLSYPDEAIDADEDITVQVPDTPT

T4: Cdc13-2 (Saccharomyces cerevisiae, UniProt P32797 1-924, E252K)
T4 sequence: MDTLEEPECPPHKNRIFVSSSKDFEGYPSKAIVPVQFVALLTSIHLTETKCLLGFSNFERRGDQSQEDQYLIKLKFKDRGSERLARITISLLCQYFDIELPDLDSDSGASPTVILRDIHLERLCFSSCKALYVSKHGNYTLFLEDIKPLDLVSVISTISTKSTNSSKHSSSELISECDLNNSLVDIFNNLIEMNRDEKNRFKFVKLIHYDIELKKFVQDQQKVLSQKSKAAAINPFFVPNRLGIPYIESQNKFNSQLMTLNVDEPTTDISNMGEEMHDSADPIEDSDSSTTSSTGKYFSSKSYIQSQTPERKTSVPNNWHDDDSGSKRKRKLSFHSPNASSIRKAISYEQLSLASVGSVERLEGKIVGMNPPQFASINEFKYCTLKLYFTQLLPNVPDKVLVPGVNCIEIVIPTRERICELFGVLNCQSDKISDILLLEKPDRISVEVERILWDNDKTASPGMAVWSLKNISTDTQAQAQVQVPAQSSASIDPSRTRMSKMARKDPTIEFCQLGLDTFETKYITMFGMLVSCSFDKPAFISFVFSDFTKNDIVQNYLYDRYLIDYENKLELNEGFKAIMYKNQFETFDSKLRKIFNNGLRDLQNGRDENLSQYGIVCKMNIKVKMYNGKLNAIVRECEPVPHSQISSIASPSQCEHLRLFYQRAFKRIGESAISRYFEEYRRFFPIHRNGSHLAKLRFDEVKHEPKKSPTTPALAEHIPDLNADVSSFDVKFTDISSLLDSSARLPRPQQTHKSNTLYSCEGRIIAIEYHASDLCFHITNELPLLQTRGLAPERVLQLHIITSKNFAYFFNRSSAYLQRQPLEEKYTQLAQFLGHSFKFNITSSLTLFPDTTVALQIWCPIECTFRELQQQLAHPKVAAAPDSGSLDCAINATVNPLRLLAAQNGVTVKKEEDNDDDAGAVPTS


Legend:
Cdc13 = target: T1, Cdc13; experiment: EMSA; 20-80 nM Cdc13, 30 nM DNA; EMSA: room temperature 5 min (30 C in Fig 5E), 30 nM DNA, 6% native gel, buffer not stated; DMS footprint: 50 mM cacodylate pH 7.0, 25 C 10 min, then 0.05% DMS; conditions: protein: recombinant, tags: 6xHis
Cdc13-BD = target: T2, Cdc13-BD; experiment: EMSA; 20-80 nM protein, 30 nM DNA; second BD molecule binds; EMSA: room temperature 5 min (30 C in Fig 5E), 30 nM DNA, 6% native gel, buffer not stated; DMS footprint: 50 mM cacodylate pH 7.0, 25 C 10 min, then 0.05% DMS; conditions: protein: recombinant; tags: 6xHis; label: 5'-32P; single strand
Est1-TAP = target: T3, Est1-TAP; experiment: EMSA; Est1-TAP alone; no stable complex; EMSA: room temperature 5 min (30 C in Fig 5E), 30 nM DNA, 6% native gel, buffer not stated; DMS footprint: 50 mM cacodylate pH 7.0, 25 C 10 min, then 0.05% DMS; conditions: protein: recombinant; label: 5'-32P on T21; 3' overhang 15 nt (T21 strand)
Cdc13-2 = target: T4, Cdc13-2; experiment: EMSA; affinity similar to wild-type Cdc13; EMSA: room temperature 5 min (30 C in Fig 5E), 30 nM DNA, 6% native gel, buffer not stated; DMS footprint: 50 mM cacodylate pH 7.0, 25 C 10 min, then 0.05% DMS; conditions: protein: recombinant; tags: 6xHis; chain copies: 2; label: 5'-32P on T21; 3' overhang 15 nt (T21 strand)

Row | Binder | binding result (Cdc13; label: 5'-32P, single strand) | binding result (Cdc13-BD) | binding result (Cdc13; chain copies: 2, label: 5'-32P on T21, 3' overhang 15 nt (T21 strand)) | binding result (Est1-TAP) | binding result (Cdc13-2)
1 | ATGGCTAGGTAGCCGAATTGCGTAGGTGGGTGTGGTGTGTGTGGG (ssDNA) [T21] | binds | binds | – | – | –
2 | T21/C20 tailed duplex (mixed, 3'-NH2 on C20) DNA 1: ATGGCTAGGTAGCCGAATTGCGTAGGTGGGTGTGGTGTGTGTGGG DNA 2: CCCACCTACGCAATTCGGCTACCTAGCCAT | – | – | binds | no binding | binds
